Test results: the supplement of paper PMC12764529
± gives the half width of the 95% confidence interval.

Experiments:
[1] = folding stability dG unfold (combined trypsin and chymotrypsin); higher = more stable
In short: (§1)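 Mini-proteins designed to be under 80 residues and free of cysteine were carried in a PA-tagged cDNA display construct and digested with trypsin and with chymotrypsin. Each protease was applied at 11 threefold-diluted concentrations, alongside a no-protease condition, before sequencing. K50 came from Bayesian fitting of the sequencing counts, and unfolding free energy was obtained by comparing it with a sequence-predicted unfolded-state K50 and a shared folded-state K50, for each protease separately or for both together. Designs were retained only if their AlphaFold2 dimer inter-PAE exceeded 15.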

[2] = folding stability dG unfold from chymotrypsin proteolysis; higher = more stable
In short: as §1

[3] = folding stability dG unfold from trypsin proteolysis; higher = more stable
In short: as §1

Sequence | folding stability dG unfold [1] [kcal/mol] | folding stability dG unfold [2] [kcal/mol] | folding stability dG unfold [3] [kcal/mol]
KKEEEIKKLEEAVREALKKKGLEVKIVEVKKNKNGEYTLTIELKDGKKIEITIKKEKMTVEDILKKLKELLS [r1_279_TrROS_Hall] | 4.13 ± 0.18 | 4.04 ± 0.15 | 4.13 ± 0.23
SAGGSAGPLERKVIVRTAPYTSPEEGEAYAEETKLAIASKLPESEKVTVEVTWDPETNTVTATIVSSAGGSA [r15_981_JUSTAS] | 0.722 ± 0.16 | 1.14 ± 0.092 | -0.491 ± 0.28
SAGGSAMDAKVVDLSLPFTLSEDGSLTATVTIEFPDGSKVPIEIPGREDGELKLEEILAAAKEALGSAGGSA [r15_233_TrMRF] | 0.478 ± 0.14 | 0.27 ± 0.069 | 0.553 ± 0.093
SAGGKKETVKVTLEIEVNGKKYKIELTKNKDGTVTIKITDKNGKKIEIEIPMSPEDVKKLLEELLKKLSAGG [r13_296_TrROS_Hall] | 3.56 ± 0.076 | 3.93 ± 0.094 | 2.17 ± 0.11
SAGGSAGGSIEIPGGYTIPSSLSEEEAKEAAKKLFLEKNPELGVKEVEVKVETKNGKKTITVVKSAGGSAGG [r6_558_JUSTAS] | 0.714 ± 0.28 | 0.857 ± 0.14 | 0.641 ± 0.074
SAGGSAGGSAGMEVILLEVDSEEEAEKLVKELSEKYGYPVKVEKDPENPKLVTLTIEKPKSAGGSAGGSAGG [r11_797_JUSTAS] | 1.36 ± 0.067 | 1.16 ± 0.039 | 1.41 ± 0.066
SMTVVTVEKTPDGGVTITVYVPETGEEVEIPVTDPEVQKKATEDPNTTVKVPKEVLESFYPDRITSLSYTSA [r9_390_JUSTAS] | 0.0747 ± 0.19 | -0.169 ± 0.22 | 0.134 ± 0.098
SAMVIIRVENKDGKTIEIAIPVRNEDGKLTKEELEELAKRLAEELAEELGLEDVKVEVEVRPLSEEELKSAG [r14_378_TrROS_Hall] | 2.35 ± 0.17 | 2.68 ± 0.081 | 1.64 ± 0.091
SMVLARIKVRVRDPVTGEELDVEIDLLAPVEVAEEAAEEFRKLFPGLEVEVDLVEVVPLPPVTPEQLAKESA [r9_421_TrMRF] | 2.48 ± 0.083 | 2.823 ± 0.017 | 1.82 ± 0.046
SMQINVERNPENGTVIIHIPMEDMPPENIREILKDLPPNNKRVTIHMHDPPYMRWLKELAKEKGFPIKITSA [r9_919_TrROS] | 0.623 ± 0.15 | 0.453 ± 0.21 | 0.824 ± 0.098
SAGGSAGGAELKPVGNDPETGKTAVILLKKPDPTGLVLALEGLSPEELKKLAEIPGYEAVAVLASAGGSAGG [r6_185_TrMRF] | 0.787 ± 0.071 | 0.213 ± 0.23 | 0.996 ± 0.037
SAGGTVTTEEVDDATYITVTKPSGETLTITAPALPDDTYLVTVYDPKTGKSTTKTVSSLDEAIKLLGSAGGS [r8_230_JUSTAS] | 2.08 ± 0.098 | 1.83 ± 0.019 | 2.2 ± 0.076
SAELPPGMRLVIDDIEPMRNNGKPMLMIKLSIYDPAKPGKEITHWTIMVTNDNIMAIQPTTYRIPPDDISAG [r14_651_TrROS] | 2.57 ± 0.22 | 2.63 ± 0.12 | 2.64 ± 0.075
SAGGSAGGSAGMTVPTSVEVSPDGTVRVRQLRWVRHGDGWRPFTFTVTLPISDDALKALKSAGGSAGGSAGG [r17_415_TrMRF] | 1.12 ± 0.038 | 1.14 ± 0.059 | 1.02 ± 0.038
SSAEEIVEKLKKELEEKLPEDYKITSVTLTKSPDGIVTAPMTIKSSDGVESTVTVTYDLKTGKITIEVNSSA [r9_219_JUSTAS] | 4.73 ± 0.22 | 4.84 ± 0.12 | 3.42 ± 0.25
SAGKPKKKIKIKLYNVDTGEEIEIEVTVEELKKLLEKLGFEVVKIEYDEETGEVTIYVKVDGYYLEIEESAG [r5_521_TrROS_Hall] | 3.41 ± 0.28 | 3.55 ± 0.13 | 2.63 ± 0.16
SAGGSAGGSAGGMTLEEVKKALEELGIKEENQTVTIELEDGSKVKITVKDGKVVLEVEPSAGGSAGGSAGGS [r10_604_TrROS_Hall] | 2.54 ± 0.13 | 2.19 ± 0.1 | 2.81 ± 0.18
SAGGSAGGSAPIKITEHTYNPGDGMVWATAEAEDPNGWKIKLTIWFFPDGNIQIEITEIVPSAGGSAGGSAG [r3_7_TrROS] | 3.83 ± 0.28 | 4.39 ± 0.14 | 2.45 ± 0.18
SAGGSAEIWIWMPYDMIESLAKKAGDPNVKVEPVEPPDDNPGEPYWFKITLKDNGKPKREIEFWFPSAGGSA [r15_428_TrROS] | 2.23 ± 0.15 | 2.67 ± 0.045 | 1.34 ± 0.031
STLPPGATRTFEFTDPATGKKITVTLTRLPDGTVRVTLTTTDPATGKTTTETFTLPGETLEALLALVEESSA [r9_618_JUSTAS] | 4.68 ± 0.16 | 4.86 ± 0.12 | 4.28 ± 0.22
SAGGSAGGSGSLEKVFTGENKIITIKYLPDGKVIITLHDPSTPKPIAVIEAKPSEIEEILKKESAGGSAGGS [r20_129_TrMRF] | 1.76 ± 0.13 | 1.86 ± 0.076 | 1.24 ± 0.12
